# From PMC12381204
# How the values were obtained:
# [1] = target: SARS-CoV-2 Nucleocapsid protein (N), full length, unmodified (SARS-CoV-2) (UniProt P0DTC9); assay: […]; 20 mM Tris-HCl, 150 mM NaCl, pH 7.5, 37 °C
# [2] = target: Phosphorylated SARS-CoV-2 Nucleocapsid protein (pN), full length, phosphorylated in vitro with GSK-3β and SRPK1 (SARS-CoV-2) (UniProt P0DTC9); assay: […]; 20 mM Tris-HCl, 150 mM NaCl, pH 7.5, 37 °C
# [3] = target: non-structural protein 3 (Nsp3) ubiquitin-like domain 1 (Ubl1), 1-111
# [4] = target: Membrane (M) protein C-terminal endodomain, 104-222 (UniProt P0DTC5)
Substance,partition coefficient [1],partition coefficient [2],other: partition coefficient [3],other: partition coefficient [4]
"6xHis-GFP-M^104-222, C-terminal endodomain of the SARS-CoV-2 Membrane (M) protein (from UniProt P0DTC5 104-222) (domain or fragment)",9.8,0.3,,
"6xHis-GFP-Nsp3^1-111, ubiquitin-like domain 1 (Ubl1) of SARS-CoV-2 non-structural protein 3 (Nsp3) (domain or fragment)",12.6,2.2,,
Nucleocapsid protein (N) (from UniProt P0DTC9),,,weaker; reference 12.6 ± 0.1,lost; reference 9.8 ± 0.3
